{"source": "patent US5238920A", "about": "“Pulmonary surfactant protein fragments” (Abbott Laboratories, priority 1989, dated 1993)", "assay_type_in_all_cases": "physicochemical", "key": {"[1]": {"test": "Dynamic surface tension versus compressed surface area, modified Wilhelmy balance-Langmuir trough", "details": "675 ug phospholipid on trough at 445 sq. cm, peptide 0.5 mg/ml (2% of solids) in DPPC:PG:PA lipids; for Surface tension, Maximum: maximum recorded during seven complete cycles; for Surface tension, Minimum: minimum recorded during seven complete cycles", "source_text": "The dynamic surface tension lowering properties of the peptide/lipid admixtures were studied using a modified Wilhelmy surface Balance (Langmuir Trough). The instrument consists of an all Teflon trough and movable Teflon ribbon (dam) barrier system which completely contains and defines a variable surface area. Surface area was varied through the use of a constant rate reversible 3-phase motor to drive the Teflon barrier. A Cahn 2000 electrobalance (Cahn Instruments, Cerittos, Calif.) with a sandblasted 1 cm platinum plate and stainless steel hangdown wire was employed to determine the surface tension at the liquid-air interface. The entire apparatus was situated in a thermostated incubator set at 45° C. Surface area-surface tension measurements were made by adding 950 ml of 0.15 M NaCl to the trough. Subphase temperature was controlled during the measurements at 36°-38° C.\nFor each experiment 27 ul of peptide/lipid admixture was applied in a random array of 13 (.perspectiveto.2 ul) droplets to the surface of the temperature controlled subphase and allowed to spread spontaneously for 3 minutes. (The 27 ul application corresponds to 675 ug of phospholipid). The trough surface area was then cycled from a maximum (445 sq. cm) to a minimum (178 sq. cm) surface area and black to maximum at a cycling rate of 3 cycles/min (compression ratio 2.5:1). The dynamic surface tension vs surface area was recorded for 7 complete compression-expansion cycles for each application."}, "[2]": {"test": "Adsorption (surface tension lowering), modified Wilhelmy surface balance", "details": "equilibrium adsorption after three (3) minutes spreading time; peptide 0.5 mg/ml (2% of solids)", "description": "A procedures similar to that described by Notter, et al., Petaitric Res. 16, 515-519, (1982) was employed to determined the absorption rate in the absence of diffusion resistance. The modified Wilhelmy surface balance as described above was used. However, instead of using a Langmuir trough a round Teflon dish (5.1 cm diameter) was employed. The subphase, 70 ml of 0.15 M NaCl, was allowed to equilibrate to 37° C. in the incubator and was continuously stirred with a Teflon coated magnetic stirrer. An aliquot of the peptide/lipid fragment admixture containing 5 mg of total phospholipid was dispersed in 10 ml of 0.15 M NaCl by vortexing for 10 seconds. This dispersion was then added to the saline subphase. Surface tension lowering was monitoring using a strip chart recorder connected to the electro balance output."}, "[3]": {"test": "Pulsating bubble surfactometer (PBS), surface tension at air-aqueous interface", "details": "after 5 minutes pulsation (100 cycles), 20 cycles/minute, 37 C, 1 mg/ml phospholipid in 0.15 M NaCl; peptide 2% of phospholipids", "description": "The Pulsating Bubble Surfactometer (PBS). The PBS equipment (Electrtonetics, Buffalo, N.Y.) used was essentially equivalent to that described in detail by G. Enhorning, J. Appld, Physiol. 43, 198-203, (1977). Recordings were made of the pressure gradient across the wall of a small air bubble, communicating with ambient air by means of a narrow chimney stack, but otherwise entirely surrounded by a 40 ul volume of the peptide/lipid admixture. The admixture concentration employed for these studies was 1 mg/ml total phospholipid (0.02 mg/ml total peptide) and the diluent was 0.15 M naCl. Immediately prior to loading the sample chamber, the diluted samples were sonicated for 15 seconds to remove any gas nuclei.\nThe pressure drop across the air-water interface was measured during pulsation by a pressure transducer, and the corresponding surface tension determined through the application of Young's law and the Laplace equation. Measurements were all made at 37° C. and the bubble pulsed at 20 cycles/minute to render respectively a maximum (1.1 mm) and a minimum (0.8 mm) bubble diameter. (This compression/expansion corresponds to a 50% change in the surface area of the air-water interface)."}, "[4]": {"test": "Relative surface activity by dilution studies on modified Wilhelmy balance-Langmuir trough", "details": "criterion: minimum dynamic surface tension less than 5 dynes/cm for each of seven consecutive cycles; phospholipid 25 mg/ml, 675 ug applied", "description": "For the purpose of this comparison \"surface activity\" is defined as follows: For any given peptide concentration, the admixture is required to result in a minimum dynamic surface tension of less than 5 dynes/cm for each of seven consecutive expansion/compression cycles.\nThe admixtures were diluted with the synthetic lipid mixture as described in Example 4, so as to maintain the lipid concentration in all cases at 25 mg/ml. For these studies a standard volume of 27 ul, corresponding to a total phospholipid mass of 675 ug, was applied to the Langmuir Trough with maximum dimensions of 445 sq. cm."}}, "note": "Values joined by “and” are separate entries in the source; they are usually repeats but may differ in a detail not shown here. Equal values may be shown once. No end group written: not given here.", "data": [{"molecule": "SP-B(1-40): synthesized SP-B peptide fragment, position 1-40, 40 amino acids", "values": [{"measurement": "Surface tension, Maximum", "setting": "[1]", "value": 48.5, "unit": "dynes/cm"}, {"measurement": "Surface tension, Minimum", "setting": "[1]", "value": "< 1", "unit": "dynes/cm"}, {"measurement": "Adsorption", "setting": "[2]", "value": 42.5, "unit": "dynes/cm"}, {"measurement": "Minimum Surface Tension", "setting": "[3]", "value": "7.1 ± 0.41", "unit": "dyne/cm"}, {"measurement": "Lowest Peptide (Protein) Concentration At Which Surface Active Criteria Are Met", "setting": "[4]", "value": "15.0 ug/ml and 3.3 uM"}]}, {"molecule": "SP-B(1-60): synthesized SP-B peptide fragment, position 1-60, 60 amino acids (FPIPLPYCWLCRALIKRIQAMIPKGALAVAVAQVCRVVPLVAGGICQCLAERYSVILLDT; ends and bridges not checked; cysteine pairing not given here; UniProt P07988 201-260, looked up, fragment)", "values": [{"measurement": "Surface tension, Maximum", "setting": "[1]", "value": 47.5, "unit": "dynes/cm"}, {"measurement": "Surface tension, Minimum", "setting": "[1]", "value": "< 1", "unit": "dynes/cm"}, {"measurement": "Adsorption", "setting": "[2]", "value": 42.0, "unit": "dynes/cm"}, {"measurement": "Minimum Surface Tension", "setting": "[3]", "value": "7.2 ± 0.26", "unit": "dyne/cm"}, {"measurement": "Lowest Peptide (Protein) Concentration At Which Surface Active Criteria Are Met", "setting": "[4]", "value": "125.0 ug/ml and 18.9 uM"}]}, {"molecule": "SP-B(12-60): synthesized SP-B peptide fragment, position 12-60, 49 amino acids (RALIKRIQAMIPKGALAVAVAQVCRVVPLVAGGICQCLAERYSVILLDT; ends and bridges not checked; cysteine pairing not given here; UniProt P07988 212-260, looked up, fragment)", "values": [{"measurement": "Surface tension, Maximum", "setting": "[1]", "value": 49.0, "unit": "dynes/cm"}, {"measurement": "Surface tension, Minimum", "setting": "[1]", "value": "< 1", "unit": "dynes/cm"}, {"measurement": "Adsorption", "setting": "[2]", "value": 41.0, "unit": "dynes/cm"}, {"measurement": "Minimum Surface Tension", "setting": "[3]", "value": "10.3 ± 0.67", "unit": "dyne/cm"}, {"measurement": "Lowest Peptide (Protein) Concentration At Which Surface Active Criteria Are Met", "setting": "[4]", "value": "30.0 ug/ml and 11.4 uM"}]}, {"molecule": "SP-B(27-78): synthesized SP-B peptide fragment, position 27-78, 52 amino acids (LAVAVAQVCRVVPLVAGGICQCLAERYSVILLDTLLGRMLPQLVCRLVLRCS; ends and bridges not checked; cysteine pairing not given here; UniProt P07988 227-278, looked up, fragment)", "values": [{"measurement": "Surface tension, Maximum", "setting": "[1]", "value": 49.5, "unit": "dynes/cm"}, {"measurement": "Surface tension, Minimum", "setting": "[1]", "value": "< 1", "unit": "dynes/cm"}, {"measurement": "Adsorption", "setting": "[2]", "value": 40.0, "unit": "dynes/cm"}, {"measurement": "Minimum Surface Tension", "setting": "[3]", "value": "4.7 ± 0.26", "unit": "dyne/cm"}, {"measurement": "Lowest Peptide (Protein) Concentration At Which Surface Active Criteria Are Met", "setting": "[4]", "value": "30.0 ug/ml and 5.3 uM"}]}, {"molecule": "SP-B(30-60): synthesized SP-B peptide fragment, position 30-60 (AVAQVCRVVPLVAGGICQCLAERYSVILLDT; ends and bridges not checked; cysteine pairing not given here; UniProt P07988 230-260, looked up, fragment)", "values": [{"measurement": "Surface tension, Maximum", "setting": "[1]", "value": 52.0, "unit": "dynes/cm"}, {"measurement": "Surface tension, Minimum", "setting": "[1]", "value": "< 1", "unit": "dynes/cm"}, {"measurement": "Adsorption", "setting": "[2]", "value": 41.0, "unit": "dynes/cm"}, {"measurement": "Minimum Surface Tension", "setting": "[3]", "value": "16.9 ± 0.95", "unit": "dyne/cm"}, {"measurement": "Lowest Peptide (Protein) Concentration At Which Surface Active Criteria Are Met", "setting": "[4]", "value": "250.0 ug/ml and 76.7 uM"}]}, {"molecule": "SP-B(1-78): replica of the entire 78 amino acid residue sequence of the native human SP-B protein (peptide, UniProt P07988 201-279, looked up, Pulmonary surfactant-associated protein B synthetic) Pulmonary …: FPIPLPYCWLCRALIKRIQAMIPKGALAVAVAQVCRVVPLVAGGICQCLAERYSVILLDTLLGRMLPQLVCRLVLRCSM", "values": [{"measurement": "Surface tension, Maximum", "setting": "[1]", "value": 44.0, "unit": "dynes/cm"}, {"measurement": "Surface tension, Minimum", "setting": "[1]", "value": "< 1", "unit": "dynes/cm"}, {"measurement": "Adsorption", "setting": "[2]", "value": 37.5, "unit": "dynes/cm"}, {"measurement": "Minimum Surface Tension", "setting": "[3]", "value": "4.0 ± 0.72", "unit": "dyne/cm"}, {"measurement": "Lowest Peptide (Protein) Concentration At Which Surface Active Criteria Are Met", "setting": "[4]", "value": "15.0 ug/ml and 1.7 uM"}]}]}
